The supplement of paper PMC10567573

B1: VPS39 (parent)
chain: ITEEKVCMVCKKKIGNSAFARYPN
B2: ZNF277 (parent)
chain: ILREELQKQRLREILEQQQQERND

Variants of: B1
Assay: protein stability index of a GFP-peptide fusion (GPS, HEK-293T) (PSI 1-6); higher = more stable
Conditions: c terminus: a fixed tail appended
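Note: lentivirally expressed fusions sorted by FACS into six bins by GFP to DsRed ratio, PSI derived from sequencing read proportions per bin multiplied by bin number.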

Protein stability index: each site, then its substitutions
N16: R 2.29 | M 1.54 | V 2.37 | A 2.42 | P 2.81 | K 2.34 | I 2.02 | L 2.05 | T 2.77 | D 2.62 | H 2.48 | W 2.08 | Q 3.01 | Y 2.1 | F 1.58 | G 3.01 | C 2.8 | S 2.35 | E 2.48
K12: Y 1.88
F19: W 2.34 | M 2.39 | P 3.14 | H 2.89 | N 2.69 | D 4.58 | K 3.55 | R 2.91 | G 3.29 | E 3.62 | A 3.58 | V 3.27 | C 3.52 | S 2.56 | L 2.28 | T 3.58 | I 2.82 | Y 3.06 | Q 3.58
I14: T 3.06 | F 2.87 | K 2.49 | A 2.56 | R 2.67 | G 2.3 | W 2.1 | P 2.64 | N 2.38 | E 2.85 | M 3 | C 2.5 | D 3.48 | H 4.23 | L 2.41 | Y 2.66 | S 3.36 | Q 2.14 | V 1.79
R21: A 2.86 | I 2.93 | Y 3.13 | V 2.59 | W 1.94 | S 2.58 | C 2.5 | T 2.55 | P 3.02 | K 2.77 | D 4.02 | L 2.45 | N 2.71 | E 3.15 | Q 2.75 | F 2.39 | M 2.71 | G 2.83 | H 2.99
A20: D 2.62 | S 3.16 | I 3.49 | C 2.56 | G 2.05 | R 2.62 | H 2.38 | M 2.43 | K 2.26 | E 2.11 | V 2.38 | W 2.16 | Q 2.74 | N 2.32 | T 2.73 | L 2.09 | F 2.34 | P 2.62 | Y 2.31
S17: I 3.04 | D 2.78 | Q 3.1 | L 2.07 | E 3.4 | F 2.18 | R 2.62 | N 2.17 | P 2.47 | M 2.3 | H 2.54 | A 2.19 | T 2.11 | G 2.52 | Y 2.08 | W 2.14 | V 3.12 | K 2.1 | C 2.67
N24: K 2.24 | L 2.27 | H 2.36 | F 1.85 | V 1.65 | C 2.34 | P 2.37 | G 1.77 | Q 2.52 | I 1.86 | Y 2.39 | W 1.93 | A 2.11 | D 2.6 | S 2.18 | T 2.88 | E 2.05 | M 2.06
G15: W 2.35 | N 2.37 | I 2.8 | F 2.35 | T 2.81 | P 2.45 | L 2.31 | C 2.98 | K 2.55 | M 2.23 | R 2.34 | A 1.39 | D 2.46 | E 2.78 | Y 2 | V 2.86 | H 2.02 | S 2.54 | Q 2.99
Y22: R 2.35 | P 2.65 | A 2.57 | C 2.98 | N 2.72 | T 2.95 | Q 2.77 | I 2.39 | M 2.9 | V 2.38 | S 2.81 | G 2.64 | W 1.63 | E 3.55 | F 2.31 | H 2.77 | D 3.12 | L 2.22 | K 2.82
A18: G 3.02 | K 2.4 | I 1.81 | D 3.65 | H 2.73 | R 2.26 | Y 1.89 | W 2.08 | N 2.99 | P 2.19 | L 2.4 | M 2.34 | F 2.15 | C 2.37 | E 3.2 | S 3.04 | T 2.52 | V 2 | Q 2.41
K13: D 2.73 | S 2.36 | V 1.98 | T 1.83 | Y 2.11 | P 2.27 | N 2.33 | F 2.28 | M 2.07 | R 2.29 | C 2.01 | Q 2.6 | H 2.01 | W 1.52 | G 1.35 | I 2.02 | E 3.04 | L 1.64 | A 1.7
P23: I 2.63 | T 2.13 | A 2.38 | C 2.8 | E 3.38 | K 2.13 | W 1.75 | D 3.19 | V 4.25 | N 2.32 | L 2.57 | F 1.76 | Q 2.26 | M 1.78 | Y 1.74 | H 2.04 | G 2.7 | R 2.49 | S 2.56

Variants of: B2
Assay: as above
Conditions: c terminus: a fixed tail appended

Protein stability index: each site, then its substitutions
R3: L 2.82 | N 4.37 | A 4.3 | I 2.91 | H 4.46 | K 4.64 | F 3.4 | D 5.06 | W 2.56 | T 4.36 | V 4.01 | E 5.21 | Y 3.64 | P 5.31 | Q 4.69 | G 5.05 | M 3.68 | S 4.96
L2: Q 5.61 | P 4.86 | E 5.51 | Y 4.81 | R 5.03 | G 5.11 | K 5.45 | S 5.33 | M 4.21 | A 5.13 | F 4.55 | D 5.63 | C 3.94 | T 5.04 | H 5.24 | W 3.79 | V 4.73 | I 4.41 | N 5.57
L6: W 5.58 | T 4.75 | D 4.76 | E 5.19 | R 4.88 | N 4.65 | V 4.65 | P 5.5 | S 4.44 | G 4.9 | C 4.18 | K 4.96 | Q 3.69 | I 4.56 | F 4.49 | M 3.89 | H 4.59 | A 4.4
I1: N 4.99 | K 4.24 | M 4.66 | G 4.93 | F 4.43 | E 4.93 | T 5.08 | C 4.79 | W 4.19 | Y 4.75 | S 5.12 | L 4.09 | A 4.59 | V 4.4 | H 4.89 | P 4.73
E5: I 2.94 | D 4.76 | C 3.76 | M 3.05 | F 2.35 | Y 3.55 | Q 4.17 | K 4.51 | H 3.81 | A 2.71 | W 2.84 | S 3.99 | P 4.47 | V 2.42 | N 4.7 | G 5.27 | R 3.68
E4: W 3.28 | L 3.05 | P 4.95 | V 3.88 | D 4.06 | F 2.99 | H 3.95 | G 4.89 | Q 3.99 | I 3.79 | K 3.22 | Y 3.38 | R 3.61 | S 4.18 | T 4.42 | A 3.85 | N 4.16 | M 3.75
